By Kd is commonly meant the constant that tells how readily two partners part at equilibrium. As a reminder, the koff is the rate constant with which the complex falls apart. The kon is the rate constant with which the complex forms.

Among the data in paper PMC10030575, “The IgV domain of the poliovirus receptor alone is immunosuppressive and binds to its receptors with comparable affinity” (Scientific Reports, 2023) are Kd, koff and kon values, retold here.

Holding throughout (test): SPR; Biacore T200; His-tagged receptors captured on an anti-histidine antibody CM5 chip (1-5 ug/mL, 30 uL/min); five concentrations (1:2 serial dilutions) of the PVR-Fc constructs flowed over, single-cycle kinetics; HBS-EP (20 mM HEPES pH 7.4, 150 mM NaCl, 0.005% Tween-20, 3.4 mM EDTA); 1:1 Langmuir model
Test [1] deals with T1, recombinant mouse CD226-his (mouse, UniProt Q8K4F0 19-254).
T1 construct: mouse CD226 (DNAM1), recombinant; also called mCD226-his; mCD226; source: bought: SinoBiological (50232-M08H)
T1 sequence (looked up): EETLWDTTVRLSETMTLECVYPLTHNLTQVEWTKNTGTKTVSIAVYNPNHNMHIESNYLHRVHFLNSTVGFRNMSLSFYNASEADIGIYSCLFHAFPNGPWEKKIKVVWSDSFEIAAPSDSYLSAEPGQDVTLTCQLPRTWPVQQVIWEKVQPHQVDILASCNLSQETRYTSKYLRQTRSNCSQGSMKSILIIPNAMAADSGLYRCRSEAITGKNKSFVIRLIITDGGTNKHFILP

Test [2] has as its target T2, recombinant mouse CD96-his (mouse, UniProt Q3U0X8 22-536).
T2 construct: mouse CD96 (TACTILE), recombinant; also called mCD96-his; mCD96; source: bought: Biolegend (788806)
T2 sequence (looked up): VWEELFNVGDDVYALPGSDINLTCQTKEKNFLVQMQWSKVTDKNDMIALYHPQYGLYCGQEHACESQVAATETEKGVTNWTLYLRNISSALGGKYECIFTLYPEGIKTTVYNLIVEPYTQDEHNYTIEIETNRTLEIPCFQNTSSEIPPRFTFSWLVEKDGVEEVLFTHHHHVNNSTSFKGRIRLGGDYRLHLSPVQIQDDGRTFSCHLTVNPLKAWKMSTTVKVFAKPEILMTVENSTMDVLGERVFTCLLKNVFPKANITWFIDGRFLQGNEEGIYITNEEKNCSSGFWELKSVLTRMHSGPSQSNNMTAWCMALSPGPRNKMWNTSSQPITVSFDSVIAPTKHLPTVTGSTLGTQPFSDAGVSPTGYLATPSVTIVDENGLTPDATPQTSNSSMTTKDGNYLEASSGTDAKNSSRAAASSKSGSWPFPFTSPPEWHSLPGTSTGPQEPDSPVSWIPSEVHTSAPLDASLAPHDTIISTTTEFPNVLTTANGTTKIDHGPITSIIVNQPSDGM

Test [3] addresses T3, recombinant mouse TIGIT-Fc-his (mouse, UniProt P86176 29-148).
T3 construct: mouse TIGIT (T-cell immunoglobulin and ITIM domain), recombinant; also called mTIGIT-Fc-his; mTIGIT; source: bought: Biolegend (771808)
T3 sequence (looked up): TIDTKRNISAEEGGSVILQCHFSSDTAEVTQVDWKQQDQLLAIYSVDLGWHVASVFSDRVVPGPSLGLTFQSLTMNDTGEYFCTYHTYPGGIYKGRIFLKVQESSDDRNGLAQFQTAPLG

Like-named read-outs stand apart in the source and are kept apart here.

For the molecule “full length PVR-Fc (full-length mouse PVR ECD-Fc) (Fc fusion)”, in test [1], the Kd was found to be 0.83 nM, the koff amounted to 0.00651 s⁻¹ and the kon was 3.2e+06 M⁻¹ s⁻¹. In test [2], the Kd was determined as 4.07 nM, the koff was found to be 0.00455 s⁻¹ and the kon was 1.17e+06 M⁻¹ s⁻¹. Moreover, in test [3], the Kd was determined as 2.26 nM and the kon came out at 2.25e+07 M⁻¹ s⁻¹.

B1: vdPVR-Fc (IgV-domain PVR-Fc) (Fc fusion, mouse, UniProt Q8K094 29-147, looked up)
chain: DIRVLVPYNSTGVLGGSTTLHCSLTSNENVTITQITWMKKDSGGSHALVAVFHPKKGPNIKEPERVKFLAAQQDLRNASLAISNLSVEDEGIYECQIATFPRGSRSTNAWLKVQARPKN
notes: murine PVR (poliovirus receptor, CD155), IgV domain of the extracellular domain, residues 29-147 of NP_081790.1; An Ig-kappa leader at the 5' end drives secretion; Migrates as a dimer (~94 kDa) without reducing agent; also called minimal murine PVR-Fc fusion construct; source: Expi293F cells, secreted, purified (protein A); not shown: Fc (human IgG1; P01857 residues 100-330; joined by linker …)
Take B1: the results for the Kd in test [1] (both partners purified), in test [2] (both partners purified) and in test [3] (both partners purified) were 0.69 nM, 1.72 nM and 2.25 nM, respectively. The koff in test [1] (both partners purified) was determined as 0.00184 s⁻¹; in test [2] (both partners purified), 0.00286 s⁻¹; in test [3] (both partners purified), 0.0656 s⁻¹. For the same molecule, the kon in test [1] (both partners purified) worked out at 2.67e+06 M⁻¹ s⁻¹; in test [2] (both partners purified), 3.52e+06 M⁻¹ s⁻¹; in test [3] (both partners purified) it was 2.92e+07 M⁻¹ s⁻¹.
